Experimental data: the Immune Epitope Database (IEDB)
Each block holds one sequence with its values, some of them ahead of it.

Assays:
Settings in all cases: source organism: Homo sapiens
HLA-A*11:01 = experiment: IEDB peptide-MHC binding, purified MHC/competitive/radioactivity; filed as Kd, often an IC50 or EC50 that approximates it; ≥ and ≤ were set here for values at or beyond the usual limits of such assays
HLA-A*24:02 = experiment: as above
HLA-A*02:01 [1] = experiment: as above
HLA-A*03:01 [2] = experiment: as above
HLA-A*02:01 [3] = experiment: IEDB peptide-MHC binding, purified MHC/competitive/radioactivity; ≥ and ≤ were set here for values at or beyond the usual limits of such assays
HLA-A*03:01 [4] = experiment: as above
HLA-A*01:01 = experiment: IEDB peptide-MHC binding, purified MHC/competitive/radioactivity; filed as Kd, often an IC50 or EC50 that approximates it; ≥ and ≤ were set here for values at or beyond the usual limits of such assays

Kd (HLA-A*11:01): 36.9 nM
Sequence: LLTQDLVQEK

Kd (HLA-A*24:02): 2.5 nM
Sequence: NYKHCFPEI

Kd (HLA-A*02:01 [1]): 4170 nM
Sequence: KTGFLIIVLV

Kd (HLA-A*03:01 [2]): 2500 nM
Sequence: VGFLLLKYR

Kd (HLA-A*11:01): 4.5 nM
Kd (HLA-A*03:01 [2]): 1180 nM
Sequence: SVMEVYDGR

Kd (HLA-A*11:01): 24.6 nM
Kd (HLA-A*03:01 [2]): 61.1 nM
Sequence: RALAETSYVK

Kd (HLA-A*03:01 [2]): 25.6 nM
Sequence: RVRFFFPSLR

Kd (HLA-A*02:01 [1]): 333 nM
Sequence: ALGLVCVQA

Kd (HLA-A*11:01): 20.3 nM
Kd (HLA-A*03:01 [2]): 31.4 nM
Sequence: ADLVGFLLLK

IC50 (HLA-A*02:01 [3]): 980 nM
Sequence: GLLGDNQIM

Kd (HLA-A*11:01): 218 nM
Kd (HLA-A*03:01 [2]): 78.6 nM
Sequence: MLESVIKNYK

Kd (HLA-A*02:01 [1]): 2170 nM
Sequence: YVLVTCLGL

Kd (HLA-A*03:01 [2]): 1180 nM
Sequence: FLIIVLVMIA

Kd (HLA-A*02:01 [1]): 139 nM
Sequence: VMIAMEGGHA

IC50 (HLA-A*03:01 [4]): 579 nM
Sequence: YVIKVSARVR

IC50 (HLA-A*02:01 [3]): 575 nM
Sequence: KVADLVGFL

Kd (HLA-A*11:01): 492 nM
Sequence: LSVMEVYDGR

Kd (HLA-A*24:02): 333 nM
Sequence: SYVKVLEYVI

IC50 (HLA-A*03:01 [4]): 550 nM
Sequence: LLGDNQIMP

Kd (HLA-A*11:01): 111 nM
Sequence: LVQEKYLEY

Kd (HLA-A*03:01 [2]): 196 nM
Sequence: LVGFLLLKY

Kd (HLA-A*03:01 [2]): 3550 nM
Sequence: MSLEQRSLH

IC50 (HLA-A*02:01 [3]): 649 nM
Kd (HLA-A*24:02): 3.8 nM
Sequence: IMPKTGFLI

IC50 (HLA-A*03:01 [4]): 688 nM
Kd (HLA-A*11:01): 5.9 nM
Sequence: TTINFTRQR

IC50 (HLA-A*03:01 [4]): 786 nM
Sequence: HSAYGEPRK

Kd (HLA-A*01:01): 44.6 nM
Sequence: ETSYVKVLEY

Kd (HLA-A*02:01 [1]): 238 nM
Sequence: ALREEEEGV

Kd (HLA-A*11:01): 16.4 nM
Kd (HLA-A*03:01 [2]): 35.5 nM
Sequence: ALAETSYVK

Kd (HLA-A*02:01 [1]): 357 nM
Sequence: YVIKVSARV

Kd (HLA-A*03:01 [2]): 1000 nM
Sequence: LFRAVITKK

Kd (HLA-A*03:01 [2]): 1590 nM
Sequence: DLVGFLLLKY

Kd (HLA-A*11:01): 393 nM
Sequence: TSCILESLFR

Kd (HLA-A*02:01 [1]): 2170 nM
Sequence: GLVCVQAAT

Kd (HLA-A*02:01 [1]): 89.3 nM
Sequence: KVADLVGFLL

Kd (HLA-A*02:01 [1]): 2500 nM
Sequence: SLQLVFGIDV

Kd (HLA-A*02:01 [1]): 156 nM
Sequence: LVLGTLEEV

Kd (HLA-A*02:01 [1]): 385 nM
Sequence: SLHCKPEEA

Kd (HLA-A*02:01 [1]): 1430 nM
Kd (HLA-A*24:02): 34.3 nM
Sequence: IMPKTGFLII

IC50 (HLA-A*02:01 [3]): 500 nM
Sequence: RALAETSYV

Kd (HLA-A*02:01 [1]): 119 nM
Sequence: FLWGPRALA

Kd (HLA-A*02:01 [1]): 2500 nM
Sequence: VADLVGFLL

Kd (HLA-A*01:01): 2270 nM
Sequence: MLESVIKNY

IC50 (HLA-A*03:01 [4]): 733 nM
Kd (HLA-A*11:01): 393 nM
Sequence: SLEQRSLHCK

Kd (HLA-A*03:01 [2]): 3790 nM
Sequence: YVKVLEYVIK

Kd (HLA-A*11:01): 15.5 nM
Sequence: LTQDLVQEK

Kd (HLA-A*03:01 [2]): 3240 nM
Sequence: LVGFLLLKYR

Kd (HLA-A*03:01 [2]): ≥ 5000 nM
Sequence: LIIVLVMIA

Kd (HLA-A*01:01): 20.8 nM
Sequence: LTQDLVQEKY

Kd (HLA-A*11:01): 6 nM
Kd (HLA-A*03:01 [2]): 9.2 nM
Sequence: SLFRAVITKK
